Consider 30 sequences from the nanobody polyreactivity screen of Harvey et al. (2022).

The nature of this series: yeast display, Sf9 membrane polyspecificity reagent, FACS + sequencing; frameworks hold sequencing errors. In a few lines: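 Sorting gates, low and high (top ~1%), were placed on anti-HA fluorescence to track expression and on streptavidin fluorescence to track reagent binding. A clone's polyreactivity label is taken from the gate it came out of. The reagent was 10% biotinylated, detergent-solubilized Sf9 membrane, applied for 1 hour at 4 °C to galactose-induced yeast display cells.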
Regarding “QVQLVESGGGLVQAGGSLRLSCAASGSIFKGYAMGWYRQAPGKERELVAAISIRGGSTYYADSVKGRFTISRDNAKNTVYLQMNSLKPEDTAVYYCAASSKRKYLYNYWGQGTQVTVSS”, the “polyreactivity (PSR sort gate)” value was “high polyreactivity”.

On to “QVQLVESGGGLVQAGGSLRLSCAASGSIFKGYTMGWYRQAPGNERELVASMRPRGGSTYYADSVKGRFTMSRHNAKNPVDLQMNSLKPEDTAVYYCAAPWGGFAGQERKYDYWGQGTQVTVSS”, for which the “polyreactivity (PSR sort gate)” value is “low polyreactivity”.

“QVQLVESGGGLVQAGGSLRLSCAASGSIFKHNAMGWYRQAPGKERELVATISESGGSTYYADSVKGRFTISRDNAKNTVYLQMNSLKPEDTAVYYCNTDYDYGWWDLGEYDYWGQGTQVTVSS”: the “polyreactivity (PSR sort gate)” value was “low polyreactivity”.

As to “QVQLVESGGGLVQAGGSLRLSCAASGSIFKINAMGWYRQAPGKERELVATITWSTGTSYYADSVKGRFTISRDNAKNTVYLQMNSLKPEDTAVYYCATDGDSTKLDYWGQGTQVTVSS”, the “polyreactivity (PSR sort gate)” value is “low polyreactivity”.

“QVQLVESGGGLVQAGGSLRLSCAASGSIFKINAMGWYRQAPWKERDFVAAITWSGGSTYYADSVKGRFTISRDNAKHTVYLQMNSLKPEDTAVYYCNARYFNYSTFGGKMGYWGQGTQVTVSS”: the “polyreactivity (PSR sort gate)” value was “high polyreactivity”.

For the sequence “QVQLVESGGGLVQAGGSLRLSCAASGSIFKINTMGWYRQAPRQERELVAAISKRGGSTYYADSVKGRFTISRDNAKITVYLQMNSLKPDDTAVYYCAAREFYKYYYWGQVTQVTVSS”, the “polyreactivity (PSR sort gate)” value is “high polyreactivity”.

On to “QVQLVESGGGLVQAGGSLRLSCAASGSIFKIYAMGWYRQAHGKERELVAAISRRGSSTSYADSVKGRFTISRDNAKNTVYLQMNSLKPEDTAVYYCAARYISNPMDYWGQGTQVTVSS”, for which the “polyreactivity (PSR sort gate)” value is “high polyreactivity”.

Regarding “QVQLVESGGGLVQAGGSLRLSCAASGSIFKKYAMGWYRPAPGKERELVAAITRGTYYADSVKGRFTISRDNAKNTVYLQMNSLKPEDTAVYDCNREYWGRGYYRVRGEYDYWGQGTQVSVSS”, the “polyreactivity (PSR sort gate)” value is reported as “low polyreactivity”.

Consider “QVQLVESGGGLVQAGGSLRLSCAASGSIFKKYAMGWYRQAPGKERELVAAITSGGSTYYADSVKGRFTISRDNAKNTVYLQMNSLKPEDTAVYYCATYRKGSLGSWGQGTQVTVSS”, for which the “polyreactivity (PSR sort gate)” value is listed as “high polyreactivity”.

On to “QVQLVESGGGLVQAGGSLRLSCAASGSIFKLNAMGWYRQAPGKERELVAVINKSGGRTYYADSVKGRFTISRDNAKNTVYFQMNSLKPEDTAVYYCNAVSKLAVNLDYWGQGTQVTVSS”, for which the “polyreactivity (PSR sort gate)” value is recorded as “high polyreactivity”.

On to “QVQLVESGGGLVQAGGSLRLSCAASGSIFKLNAMGWYRQAPGKERELVAVINKSGGRTYYADSVKGRFTISRDNAKNTVYLQMNSLKPEDTAVYFCNAVSKLAVNLDYWGQGTQVTVSS”, for which the “polyreactivity (PSR sort gate)” value is “high polyreactivity”.

For “QVQLVESGGGLVQAGGSLRLSCAASGSIFKPYAMGWYRQAPGKERELVAAISTRGSSTYYADSVKGRFTISRDNAKNTVYLQMNSLIPEDTAVYYCAKRRYLWGYEYDSWGQGTQVTVSS”, the “polyreactivity (PSR sort gate)” value is “high polyreactivity”.

On to “QVQLVESGGGLVQAGGSLRLSCAASGSIFKVNTMGWHRQAPGTERELVAAISSSDDSTYYADSVKGRFTISRDNAKNTVYLQMNSLKPEDTAVYYCAADGSSVDSGGINDEYWGQGTQVTVSS”, for which the “polyreactivity (PSR sort gate)” value is “low polyreactivity”.

With “QVQLVESGGGLVQAGGSLRLSCAASGSIFKVNTMGWYRQAPGKERELVAAISSSDDSTYYADSVKGRFTISRDNAKNTVYLQMNSLKPEDTAVYYCAADGSSVDSGGINDEYWGQGTQVTVSS”, the “polyreactivity (PSR sort gate)” value is reported as “low polyreactivity”.

Turning to “QVQLVESGGGLVQAGGSLRLSCAASGSIFKVNTMGWYRQAPGKERELVAAISYSGGSTYYADSVKGRFTISRDHAKNTVYLQMNSLKPEDTAVYYCNVSPTTSGDGGGYDSWGQGTQVTVSS”, the “polyreactivity (PSR sort gate)” value is given as “low polyreactivity”.

For “QVQLVESGGGLVQAGGSLRLSCAASGSIFKYYAKGWYRQAPGKERELVAAITIGGNTNYADSVKGRFTISRDNAKNTVYLQMNSLKPEDTAVYYCATGGYYSAIVYGGYDYWGHGTQVTVSS”, the “polyreactivity (PSR sort gate)” value is “low polyreactivity”.

For the sequence “QVQLVESGGGLVQAGGSLRLSCAASGSIFKYYAMGWYRQAPGKERELLADISFGGDSTYYADSVKGRFTISRDNAKNTVYLQMNSLIPEDTAVYYCAAAPYFWFVEYDYWGQGTQVTVSS”, the “polyreactivity (PSR sort gate)” value was “low polyreactivity”.

For “QVQLVESGGGLVQAGGSLRLSCAASGSIFKYYAMGWYRQAPGKERELVAAINSGGDTYYADSVKGRFTISRDNAKNTVYLQMNSLKPEDTAVYYCAAYGYAGYAHRDMDYWGQGSQVTVSS”, the “polyreactivity (PSR sort gate)” value is listed as “low polyreactivity”.

As for “QVQLVESGGGLVQAGGSLRLSCAASGSIFKYYAMGWYRQAPGKERELVAAISSGGRTYYADSVKGRFTISRDNAKNTVYLQMNSLKPEDTAVYYCNRPPWSRGSNYWGQGTQVTVSS”, the “polyreactivity (PSR sort gate)” value is “high polyreactivity”.

For “QVQLVESGGGLVQAGGSLRLSCAASGSIFKYYAMGWYRQAPGKERELVAAITGSGGNTYYADSVKGRFTISRDNAKNTVYLQMNSLKPEDTAVYYCAATYWWAYVWAYSHVKSTNDYWGQGTQVTVSS”, the “polyreactivity (PSR sort gate)” value is given as “low polyreactivity”.

“QVQLVESGGGLVQAGGSLRLSCAASGSIFKYYAMGWYRQAPGKERELVAAITSSGARTYYADSVKGRFTISRDNAKNTVYLQMNSLKPEDTAVYYCRGYVRDQSKYDYWGQGTQVTVSS”: the “polyreactivity (PSR sort gate)” value is on record as “high polyreactivity”.

Take “QVQLVESGGGLVQAGGSLRLSCAASGSIFKYYTMGWYRQAPGKDRELVAAISSGGSTTYADSVKGRFTISRDNAKNSVYLQMNSLKPEDTAVYCCAAGYGYPTFVERDYWGHGTQVTVSS”: the “polyreactivity (PSR sort gate)” value is listed as “high polyreactivity”.

As to “QVQLVESGGGLVQAGGSLRLSCAASGSIFLENTMGWYRQAPGKERELVAAITSSGDSTYADSVKGRFTISRDNAKNTVYLQMNSLKPEDTAVYYCNKDYDDIAPTRAVLDRYDYWGQGTQVTVSS”, the “polyreactivity (PSR sort gate)” value is recorded as “low polyreactivity”.

On to “QVQLVESGGGLVQAGGSLRLSCAASGSIFLFYTMGWYRQAPGKERELVASSSGGGTHYADSVKGRFTISRDNAKNTVYLQMNSLKPEDTAVYYCATPNKNGQNLGGVWEAYDYWGQGTQVTVSS”, for which the “polyreactivity (PSR sort gate)” value is listed as “low polyreactivity”.

For the sequence “QVQLVESGGGLVQAGGSLRLSCAASGSIFLFYTMGWYRQATGKERELVAAISYSGGNTYYADSVKGRFTISRDNATNTVYLQMNSLKPEDTAVYYCNVRTQWARYDYWRQGTQVTVSS”, the “polyreactivity (PSR sort gate)” value is “high polyreactivity”.

For the sequence “QVQLVESGGGLVQAGGSLRLSCAASGSIFLGNAMGWYRQAPGKESELVAAISSITGRTYYADSVKGRFTISRDNAKNTVYLQMNSLKPEDTAVYYCNKVKRSFIVNTDDYWGQGTQVTVSS”, the “polyreactivity (PSR sort gate)” value is “high polyreactivity”.

Take “QVQLVESGGGLVQAGGSLRLSCAASGSIFLGYAMGWYRQAPGKERELVATITSSGSTSYADSVKGRFTISRDNAKNTVYLQMKSLKPEDTAVYFCNTDLFQYGVNHYEYWGQGTQVTVSS”: the “polyreactivity (PSR sort gate)” value is given as “high polyreactivity”.

For the sequence “QVQLVESGGGLVQAGGSLRLSCAASGSIFLHNAMGWYRQAPGKERELVAGITSSGTSTYYADSVKGRFTISRDNEKNTVYLQMNSLKPEDTAVYYCAAYRYGSRGGYCGQGTQVTVSS”, the “polyreactivity (PSR sort gate)” value is listed as “high polyreactivity”.

For the sequence “QVQLVESGGGLVQAGGSLRLSCAASGSIFLHNAMGWYRQAPGKERELVAVITSRGGSTYYADSVKGRLTISRDNAKNTVYLQMKSLKPEDTAVYYCAAPAYHKRTSRGDYWGQGTQVTVSS”, the “polyreactivity (PSR sort gate)” value was “low polyreactivity”.

As to “QVQLVESGGGLVQAGGSLRLSCAASGSIFLHYAMGWYRQAPGKERELVAAISRSGGRTYYADSVKGRFTISRDNAKNTVYLQMNSLKPEDTAVYYCAARVPRYRKDSVWAYYYWGQGPQVTVSS”, the “polyreactivity (PSR sort gate)” value is given as “high polyreactivity”.
